Data reported in US20230038638A1, “COMPLEMENT FACTOR I-RELATED COMPOSITIONS AND METHODS” (published 2023).

T1: human C4b (human) (UniProt P0C0L4)
T1 sequence: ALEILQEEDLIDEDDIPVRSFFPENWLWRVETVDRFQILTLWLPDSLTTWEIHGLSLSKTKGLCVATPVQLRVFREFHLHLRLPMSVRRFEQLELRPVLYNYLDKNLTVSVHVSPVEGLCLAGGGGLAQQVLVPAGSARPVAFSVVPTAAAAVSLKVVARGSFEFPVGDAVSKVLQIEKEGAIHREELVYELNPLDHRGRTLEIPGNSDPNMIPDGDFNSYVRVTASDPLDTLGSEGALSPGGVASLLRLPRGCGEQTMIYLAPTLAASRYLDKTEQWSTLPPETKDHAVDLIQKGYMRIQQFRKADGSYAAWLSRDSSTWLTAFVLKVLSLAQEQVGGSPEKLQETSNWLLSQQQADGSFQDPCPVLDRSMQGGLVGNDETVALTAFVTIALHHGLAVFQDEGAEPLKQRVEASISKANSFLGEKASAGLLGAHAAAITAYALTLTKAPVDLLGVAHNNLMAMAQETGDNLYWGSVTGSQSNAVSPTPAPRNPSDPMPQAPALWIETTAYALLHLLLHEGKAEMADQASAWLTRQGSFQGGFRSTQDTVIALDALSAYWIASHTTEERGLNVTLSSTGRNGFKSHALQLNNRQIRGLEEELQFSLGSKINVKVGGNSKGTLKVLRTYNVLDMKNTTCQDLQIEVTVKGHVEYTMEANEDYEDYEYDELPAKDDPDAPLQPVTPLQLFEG

T2: human C4b (human) (UniProt P0C0L5)
T2 sequence: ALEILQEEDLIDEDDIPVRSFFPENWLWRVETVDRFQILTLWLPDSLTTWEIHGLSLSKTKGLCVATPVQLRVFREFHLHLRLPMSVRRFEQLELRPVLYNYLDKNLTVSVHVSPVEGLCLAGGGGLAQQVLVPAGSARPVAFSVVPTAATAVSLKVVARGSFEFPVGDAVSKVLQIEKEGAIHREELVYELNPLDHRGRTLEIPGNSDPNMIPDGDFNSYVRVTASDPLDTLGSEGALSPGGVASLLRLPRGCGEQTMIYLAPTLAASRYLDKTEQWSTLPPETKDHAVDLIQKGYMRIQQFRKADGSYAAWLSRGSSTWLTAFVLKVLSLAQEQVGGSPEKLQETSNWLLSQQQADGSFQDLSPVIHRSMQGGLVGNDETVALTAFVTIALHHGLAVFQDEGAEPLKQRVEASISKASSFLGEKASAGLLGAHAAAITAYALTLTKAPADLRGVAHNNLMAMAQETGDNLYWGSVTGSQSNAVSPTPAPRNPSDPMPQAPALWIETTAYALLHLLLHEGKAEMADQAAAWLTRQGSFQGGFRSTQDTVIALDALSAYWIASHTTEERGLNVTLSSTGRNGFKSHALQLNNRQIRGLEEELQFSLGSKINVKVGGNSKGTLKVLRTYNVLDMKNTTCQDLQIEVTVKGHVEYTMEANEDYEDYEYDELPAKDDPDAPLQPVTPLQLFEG


How the values were obtained:
human C4b (human) [1] = molecular target: T1, human C4b (human)
[2] = molecular target: soluble human C3b (human) (UniProt P01024)
human C4b (human) [3] = molecular target: T2, human C4b (human)
human C4b (human) [4] = molecular target: T1, human C4b (human); remark: listed apart in the source

Row | C4c EC50 (human C4b (human) [1]) [nM] | Molecule | further results
1 | 209 | CFI-HSA variant T346K; Y408L; N531G (enzyme) | –
2 | 139 | CFI-HSA variant S552G; Y553H; P558S (enzyme) | iC3b Screen Ref Fold (fold of CFI-HSA wild type) [2]: 0.44; C4b Screen Ref Fold (fold of CFI-HSA wild type) (human C4b (human) [3]): 2.04
3 | – | CFI-HSA variant Y408L; E457G; N531G; E530Y (enzyme) | C4c EC50 (nM) (human C4b (human) [1]): 35.4 nM
4 | 126 | CFI-HSA variant Y408L; N531G; R462K (enzyme) | –
5 | 142 | CFI-HSA variant Y408L; E457G; R462K (enzyme) | –
6 | 98.2 | CFI-HSA variant Y408L; N531G; R462K; F464Y (enzyme) | –
7 | 62.4 | CFI-HSA variant Y408L; N531G; P535G; WT; GGSSGG (SEQ ID NO: 6); CR1(ccp15-17) (enzyme) | –
8 | 300 | CFI-HSA variant K534N (enzyme) | –
9 | – | CFI-HSA variant Y408L; E530Y (enzyme) | C4c EC50 (nM) (human C4b (human) [1]): > 1000 nM
10 | 51.2 | CFI-HSA variant N531G; R462K (enzyme) | –
11 | > 1000 | CFI-HSA variant F464L (enzyme) | –
12 | 23.2 | CFI-HSA variant Y408L; N531G; E457G; F464Y (enzyme) | –
13 | 329 | CFI-HSA variant T407G (enzyme) | –
14 | 159 | CFI-HSA variant E461Q; R462K; F464Y (enzyme) | –
15 | 66.5 | CFI-HSA variant Y408L; N531G; F464Y (enzyme) | –
16 | – | CFI-HSA variant Y408L; E457G; N531G; D425R; E530Y (enzyme) | C4c EC50 (nM) (human C4b (human) [1]): 92.9 nM
17 | – | CFI-HSA variant Y408L; E457G; E461Q; R462K; N531G; GGSSGG (SEQ ID NO: 6); CR1 (ccp15-17) (from UniProt P17927) (enzyme) | C4c EC50 (nM) (human C4b (human) [1]): 91 nM
18 | 113 | CFI-HSA variant Y408L; E457G; N531G; WT; GGSSGG (SEQ ID NO: 6); CR1(ccp15-17) (enzyme) | –
19 | – | CFI-HSA variant E457G; E530Y (enzyme) | C4c EC50 (nM) (human C4b (human) [1]): 332 nM
20 | – | CFI-HSA variant Y408L; D425R; E530Y (enzyme) | C4c EC50 (nM) (human C4b (human) [1]): 900 nM
21 | 110 | CFI-HSA variant Y408L; E457G; F464Y (enzyme) | –
22 | – | CFI-HSA variant E457G; N531G; E461Q; R462K; F464Y; E530Y; GGSSGG (SEQ ID NO: 6); CR1(ccp15-17) (from UniProt P17927) (enzyme) | C4c EC50 (nM) (human C4b (human) [1]): 86.7 nM

Row | C4c EC50 (human C4b (human) [1]) [nM] | Molecule | further results
23 | 111 | CFI-HSA variant Y408L; E530K; N531G (enzyme) | –
24 | 52.7 | CFI-HSA variant E457G; R462K (enzyme) | –
25 | 33 | CFI-HSA variant N531G; E457G; R462K; F464Y (enzyme) | –
26 | 105 | CFI-HSA variant Y408L; E461Q; F464Y (enzyme) | –
27 | 24 | CFI-HSA variant N531G; E461Q; R462K; F464Y (enzyme) | –
28 | > 1000 | CFI-HSA variant F464I (enzyme) | –
29 | 84.6 | CFI-HSA variant E457G; R462K; F464Y (enzyme) | –
30 | 40.9 | CFI-HSA variant Y408L; N531G; WT; GGSSGG (SEQ ID NO: 6); CR1(ccp15-17) (enzyme) | –
31 | – | CFI-HSA variant K504E (enzyme) | iC3b Screen Ref Fold (fold of reference) [2]: 0.12; iC3b Screen Ref Fold (fold vs CFI-HSA wild type) [2]: 0.88; C4b Screen Ref Fold (fold of reference) (human C4b (human) [4]): 0.24; C4b Screen Ref Fold (fold vs CFI-HSA wild type) (human C4b (human) [3]): 0.24
32 | – | CFI-HSA variant N531G; D425R; E530Y (enzyme) | C4c EC50 (nM) (human C4b (human) [1]): 162 nM
33 | 57.5 | CFI-HSA variant E457G; P535G; WT; GGSSGG (SEQ ID NO: 6); CR1(ccp15-17) (enzyme) | –
34 | > 1000 | CFI-HSA variant F464A (enzyme) | –
35 | 156 | CFI-HSA variant Y408L; E457G; R462K; F464Y (enzyme) | –
36 | 435 | CFI-HSA variant T407G; Y408L (enzyme) | –
37 | 40.3 | CFI-HSA variant E457G; E461Q; F464Y (enzyme) | –
38 | – | CFI-HSA variant P384G (enzyme) | iC3b Screen Ref Fold (fold of reference) [2]: 0.01; iC3b Screen Ref Fold (fold vs CFI-HSA wild type) [2]: 0.03; C4b Screen Ref Fold (fold of reference) (human C4b (human) [4]): 0.1; C4b Screen Ref Fold (fold vs CFI-HSA wild type) (human C4b (human) [3]): 0.04
39 | 300 | CFI-HSA variant T407G; Y408L; E457G (enzyme) | –
40 | 58.1 | CFI-HSA variant K14A; D425R; Y408L-N531G (enzyme) | –
41 | – | CFI-HSA variant N531G; E530Y (enzyme) | C4c EC50 (nM) (human C4b (human) [1]): 38.2 nM
42 | 154 | CFI-HSA variant K534M (enzyme) | –
43 | 54.8 | CFI-HSA variant N531G; R462K; F464Y (enzyme) | –
44 | – | CFI-HSA variant E457G; E461Q; F464Y; N531G; GGSSGG (SEQ ID NO: 6); CR1 (ccp15-17) (from UniProt P17927) (enzyme) | C4c EC50 (nM) (human C4b (human) [1]): 38.4 nM

Row | C4c EC50 (human C4b (human) [1]) [nM] | Molecule | further results
45 | – | CFI-HSA variant Y408L; E457G; E530Y (enzyme) | C4c EC50 (nM) (human C4b (human) [1]): 26.5 nM
46 | 71.9 | CFI-HSA variant Y408L; N531G (enzyme) | –
47 | 108 | CFI-HSA variant E457G; Y408L (enzyme) | –
48 | 123 | CFI-HSA variant E461Q; F464Y (enzyme) | –
49 | – | CFI-HSA variant Y408L; N531G; D425R; E530Y (enzyme) | C4c EC50 (nM) (human C4b (human) [1]): 41.2 nM
50 | – | CFI-HSA variant Y408L; N531G; E530Y (enzyme) | C4c EC50 (nM) (human C4b (human) [1]): 54 nM
51 | 28.8 | CFI-HSA variant N531G; E461Q; F464Y (enzyme) | –
52 | 95.9 | CFI-HSA variant E461Q; R462K (enzyme) | –
53 | 60.2 | CFI-HSA variant E457G; E461Q; R462K (enzyme) | –
54 | 46.7 | CFI-HSA variant Y408L; N531G; E461Q; F464Y (enzyme) | –
55 | 82.3 | CFI-HSA variant E457G; F464Y (enzyme) | –
56 | 63.5 | CFI-HSA variant N531G; F464Y (enzyme) | –
57 | – | CFI-HSA variant Y408L; E457G; R462K; F464Y; N531G; GGSSGG (SEQ ID NO: 6); CR1 (ccp15-17) (from UniProt P17927) (enzyme) | C4c EC50 (nM) (human C4b (human) [1]): 76.4 nM
58 | 620 | CFI-HSA variant T407G; N531G (enzyme) | –
59 | 36.1 | CFI-HSA variant Y408L; E457G; E461Q (enzyme) | –
60 | 24.5 | CFI-HSA variant Y408L; N531G; E461Q; R462K (enzyme) | –
61 | 545 | CFI-HSA variant T407G; E457G (enzyme) | –
62 | – | CFI-HSA variant Y553K (enzyme) | C4c EC50 (nM) (human C4b (human) [1]): 198 nM
63 | 229 | CFI-HSA variant Y408L; E530R; N531G (enzyme) | –
64 | – | CFI-HSA variant E457G; N531G; E461Q; R462K; F464Y; GGSSGG (SEQ ID NO: 6); CR1 (ccp1-3) (from UniProt P17927) (enzyme) | C4c EC50 (nM) (human C4b (human) [1]): > 1000 nM
65 | – | WT mouse CFI; His tag (enzyme) RSPSASDLPQEELVDQKCLLQKYTHRSCNKVFCQPWQRCIEGTCICKLPYQCPRAGTPVCAMNGRSYPTYCHQKSFECLHPEIKFSHNGTCAAEGKFNVSLIYGRTKTEGLVQVKLVDQDERMFICKNSWSMAEANVACVDLGFPLGVRDIQGSFNISGNLHINDTECLHVHCRGVETSLAECAFTKRRTELSNGLAGVVCYKQDADFPTSLSFQCVNGKHIPQEKACNGVNDCGDQSDELCCKGCRGNASLCKSGVCIPDQYKCNGEVDCITGEDESRCEEDRQQNIPKGLARSAQGEAEIETEETEMLTPGMDNERKRIKSLLPKLSCGVKRNTHTRRKRVIGGKPANVGDYPWQVAIKDGQRITCGGIYIGGCWILTAAHCVRPSRAHSYQVWTALLDWLKPNSQLGIQTVKRVIVHEKYNGATFQNDIALIEMKMHTGKKECELPNSVPACVPWSPYLFQPNDRCIISGWGRGKDNQKVYSLRWGEVDLIGNCSQFYPDRYYEKEMQCAGTRDGSIDACKGDSGGPLVCEDINNVTYVWGIVSWGENCGKPEFPGVYTRVANYFDWISYHVGRSLVSQHNV | iC3b Screen Ref Fold (fold of CFI-HSA wild type) [2]: 0.03; C4b Screen Ref Fold (fold of CFI-HSA wild type) (human C4b (human) [4]): -0.08
